According to US20240352093A1, “PEPTIDE AND GELATIN HYBRID HYDROGELS AS ECONOMICAL ALTERNATIVES TO COMMON BASEMENT-MEMBRANE MATRICES” (AGENCY FOR SCIENCE, TECHNOLOGY AND RESEARCH, priority 2021, published 2024):
No end group written: not given here.

How the values were obtained:
[1] = Transparency and clarity of hydrogels (tube images, light microscopy); type: physicochemical; conditions: SW480 spheroids Day 7 (FIG. 13)
Procedure: IVK8 was dissolved in 300 mM sucrose sterile solution at a peptide concentration of 1.0% wt/vol. and stored at 4° C. until required. The peptide remains a solution at cold conditions (4° C. or ice bath). Gelatin was dissolved using sterile DI water at 60 mg/ml at 60° C. To form the hydrogel, gelatin was removed from the warm water bath and the cold IVK8 solution was added to the gelatin. DMEM was then added to this mixture at a volume ratio of 3:7 DMEM: mixture and was left to stand at 37° C. for 10 min for gelation to occur. The procedure for preparing IVK8 hydrogels was the same. Once formed, the gels remain stable at temperatures between 25 to 37° C. Similarly, the other peptide/gelatin hydrogels may be prepared by the same method described for IVK8, further detail and modifications of the general procedure may be found in WO2021015675. For example. IIK8, ILK8, IVK12, and IIK12 may be used instead of IVK8 to prepare the peptide/gelatin hydrogel. It may be observed from FIGS. 10A to 10 that shorter peptides result in clearer hydrogels. […] The high opacity of IVK12_0.25%/Gelatin_3% (FIG. 11D) and IIK12_0.25%/Gelatin_3% (FIG. 11E) may make them less suitable for 3D culture of tumor spheroid due to difficulties in observing the spheroids.

SW480 tumor spheroids = assay: Cell viability (MTS) of SW480 tumor spheroids cultured in hydrogels; type: cell-based, human; conditions: Day 7; hybrid hydrogels peptide_0.25%/G_3% (FIG. 12B)
Procedure: Human hepatocellular carcinoma HepG2 and human colorectal adenocarcinoma SW480 were cultivated in Dulbecco's Modified Eagle Medium (DMEM), supplemented by 10% Fetal Bovine Serum and 1% Penicillin, incubated at 37° C., 5% CO2. To prepare the tumor spheroids, 200 μL of cell suspension (3500 cells/mL) were seeded per well onto 96-well ultralow adhesion round bottom plates (Corning, U.S.A.). After which, the plate was centrifuged for 5 min at 1500 rpm) and incubated at 37° C. for 2-3 days for the cells to assemble into tumor spheroids. The IVK8/gelatin hydrogels were then prepared according to the steps in Section 2.2 and was used right after mixing the peptide and gelatin together. A positive control group was set up using the basement membrane product, Geltrex™ (Thermofisher, U.S.A.). Geltrex was kept in an ice bath during the experiment. The hydrogels were transferred to the tumor spheroids by first removing 150 μL of the spent medium. Subsequently, 70 μL of the hydrogels were added per well and the samples and incubated at 37° C. for 30 min before 100 μL were added to each well. The spent medium was replaced once every 2 to 3 days by removing 80 μL medium and adding 80 μL fresh medium. The growth of the tumor spheroids was monitored over time using DMil inverted light microscope (Leica, U.S.A.).
The viability of tumor spheroids cultured in the hydrogels for 7 days was determined by the CellTiter 96 AQueous One Solution Cell Proliferation Assay (MTS) (Promega, U.S.A.). Briefly, 80 μL of the spent medium was removed from each well containing the tumor spheroids. Next, 80 μL containing DMEM: MTS at 1:1 volume ratio was then added back into the wells. The plate was then incubated at 37° C. for 4.5 h. After which, the medium was pipetted several times to break up any aggregates that may be present and 100 μL of this solution was transferred to a fresh 96 well plate. The absorbance of the samples was measured at wavelength 490 nm using a microplate reader (Tecan, Switzerland).

[2] = Gelation time by vial tilting method; type: physicochemical; conditions: 2% wt/vol.
Procedure: Vial tilting method was applied to determine the gelation time of the hydrogels. […] Rheology experiments were performed on a control-strain rheometer (ARES G2, TA instruments), as described previously. Briefly, a parallel plate measuring geometry (8 mm diameter, gap 1 mm) with oscillatory strain of 1% and the dynamic storage modulus (G′) and loss modulus (G″) were examined as a function of frequency from 1 to 100 rad/s. In addition, a flow sweep to study the viscosity changes as a function of shear rate of hydrogel samples.

[3] = Water retention of IVK8 peptide hydrogel; type: physicochemical; conditions: peptide hydrogel in water at high concentrations

| Sequence | opacity of peptide/gelatin hybrid hydrogel in spheroid culture [1] | cell viability of SW480 tumor spheroids compared to Geltrex (SW480 tumor spheroids) | gelation time ([2]; 37° C.) | gelation time ([2]; room temperature (23-24° C.)) [min] | water retention [3] [%] |
| --- | --- | --- | --- | --- | --- |
| IEIEIRIK (IEIEIRIK-NH2) [IIK8, self-assembling peptide] | least opaque | no significant difference |  |  |  |
| IELEIRLK (IELEIRLK-NH2) [ILK8, self-assembling peptide] | more opaque | no significant difference |  |  |  |
| IEVEIRVK (IEVEIRVK-NH2) [IVK8, self-assembling peptide] | least opaque | no significant difference | less than 30 min | ≤ 60 | ~99 |
| IRIKIEIEIRIK (IRIKIEIEIRIK-NH2) [IIK12, self-assembling peptide] | more opaque | significantly lower viability |  |  |  |
| IRVKIEVEIRVK (IRVKIEVEIRVK-NH2) [IVK12, self-assembling peptide] | most opaque | significantly lower viability |  |  |  |
